Test results published in US7384632B2, “Agonist anti-trk-C monoclonal antibodies” (Genentech, Inc., priority 2000, dated 2008).
Like-named read-outs stand apart in the source and are kept apart here.

What was measured:
p75^NTR (LNGFR, p75) = biological target: T1, p75^NTR (LNGFR, p75) (Homo sapiens, UniProt P08138); details: equilibrium binding studies, neurotrophin-responsive neurons; cited from earlier work
T1 construct: host or cells: neurotrophin-responsive neurons
T1 sequence (P08138 29-427): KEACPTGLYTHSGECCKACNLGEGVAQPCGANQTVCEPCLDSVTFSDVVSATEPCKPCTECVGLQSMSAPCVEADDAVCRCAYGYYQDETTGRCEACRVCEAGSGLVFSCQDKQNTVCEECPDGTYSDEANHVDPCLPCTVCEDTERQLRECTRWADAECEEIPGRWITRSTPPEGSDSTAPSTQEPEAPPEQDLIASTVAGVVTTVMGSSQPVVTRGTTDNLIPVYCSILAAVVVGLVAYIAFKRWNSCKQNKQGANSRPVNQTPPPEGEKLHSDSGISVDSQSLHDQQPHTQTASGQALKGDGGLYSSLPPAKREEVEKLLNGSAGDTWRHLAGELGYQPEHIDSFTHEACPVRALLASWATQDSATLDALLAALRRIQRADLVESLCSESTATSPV

[1] = tested on: cisplatinum induced neuropathy; assay: Cisplatinum induced neuropathy in adult rats, H-wave sensory conduction velocity; assay type: in vivo, rat; details: 1 mg/kg three times per week subcutaneously for four weeks, continued cisplatinum
Description: In order to create an animal model of cisplatinum induced neuropathy, adult rats were dosed with cisplatinum twice a week for sixteen weeks with 1 mg/kg intraperitoneally (IP). At this point, rats were split into four groups. All four groups continued receiving cisplatinum twice weekly. […] The NT-3 doses were given subcutaneously, while the Mabs and saline were administered IV. This treatment regime was continued for an additional four weeks, for a total of twenty weeks of cisplatinum administration.

pyridoxine toxicity = details: cited from earlier work
[2] = tested on: cisplatin sensory neuropathy; details: rats, cited from earlier work
gD-trkC = gD-trkC (Homo sapiens, UniProt Q16288); assay: BIAcore surface plasmon resonance (SPR) affinity; assay type: binding
Description: Affinities of anti-trkC agonist monoclonal antibodies were determined using BIAcore-2000™ surface plasmon resonance (SPR) system (BIAcore, Inc., Piscataway, N.J.). CM5 biosensor chips were activated with N-ethyl-N′-(3-dimethylaminopropyl)-carbodiimide hydrochloride (EDC) and N-hydroxysuccinimide (NHS) according to the supplier's instructions. In the first series of binding experiments, the antigen, gD-tagged trkC, was diluted into 10 mM sodium acetate buffer (pH 4.8), and injected over the activated chip at a concentration of 0.09 mg/mL. Using variable exposure times, four ranges of antigen density were achieved: 14,000-17,000 response units (RU), 7000-9000 RU, 2000-3000 RU, and 400-600 RU. The chip was blocked with ethanolamine.
In the first series of kinetic measurements, anti-trkC antibodies (IgG's) were diluted into running buffer (PBS containing 0.05% Tween-20 and 0.01% sodium azide) and 0.03 mL (667 nM) was injected over the biosensor chip at 25° C. at a flow rate of 0.01 mL/min.
In a second series of experiments, the IgG's (0.1 mg/mL in 10 mM sodium acetate, pH 4.8) were immobilized as described above, except that antibody density was limited to 1000-2000 RU. Two-fold serial dilutions of gD-trkC in the range of […] to 29 nM were then injected over the biosensor chip for kinetics measurements as described above.
The dissociation phase of each kinetic curve were fit to a single exponential dissociation rate (koff), and these rates were used in the calculation of the association rate (kon) from the injection phase, using a simple 1:1 Langmuir binding model (Lofas & Johnsson, 1990).
Equilibrium dissociation constants, Kd's, from SPR measurements were calculated as the ratio koff/kon.
The affinities of anti-trkC antibodies for gD-trkC were measured in SPR kinetics experiments with either antigen or antibody immobilized. Apparent affinities determined from experiments using low densities of immobilized antigen (0.4 to 0.6 ng/mm2), were generally consistent with those determined in experiments using immobilized IgG (see Table 2). […] In some cases, no binding could be detected when trkC was injected over immobilized IgG. This may have occurred because immobilization of the IgG led to steric blocking of the antigen-binding site.

trkC N335A = tested on: trkC N335A; set-up: species or system human; details: NB = no binding observed
Description: (§1) A total of 26 single amino acid mutations were made and evaluated for their effect on binding to anti-trkC monoclonal antibodies.

trkC E287K = biological target: T2, trkC E287K (Homo sapiens, UniProt Q16288, E318K/S70N); assay: Binding to trkC single amino acid mutants (EC50 ratio); details: NB = no binding observed
T2 construct: made in house
Description: (§2) Site-directed mutagenesis approach was used to determine the contribution of selected individual amino acid residues of domain 5 in the recognition by anti-trkC antibodies. […] A total of 26 single amino acid mutations were made and evaluated for their effect on binding to anti-trkC monoclonal antibodies. The values shown in Table 5 represent the ratio of binding to anti-trkC antibody of mutant vs wildtype trkC.

trkC H318A = biological target: T3, trkC H318A (Homo sapiens, UniProt Q16288, H349A/S70N); assay: as above
T3 construct: made in house
Description: as §1

trkC L284E = biological target: T4, trkC L284E (Homo sapiens, UniProt Q16288, L315E/S70N); assay: as above; details: NB = no binding observed
T4 construct: made in house
Description: as §2

trkC L286H = biological target: T5, trkC L286H (Homo sapiens, UniProt Q16288, L317H/S70N); assay: as above; details: NB = no binding observed
T5 construct: made in house
Description: as §2

wildtype trkC = wildtype trkC (Homo sapiens, UniProt Q16288, S70N); assay: as above; details: wildtype trkC (reference)
Description: as §2

trkC R285A = biological target: T6, trkC R285A (Homo sapiens, UniProt Q16288, R316A/S70N); assay: as above; details: NB = no binding observed
T6 construct: made in house
Description: as §2

[3] = gD-trkC binding to immobilized IgG's (1000-3000 RU)

## NGF: nerve growth factor, first identified member of the neurotrophin family
p75^NTR (LNGFR, p75)
  Kd: 2 nM

## NT-3: neurotrophin-3, the natural ligand of trkC receptor; positive control and comparator
[1]
  sensory conduction velocity (H-wave): improvement of this lowered conduction velocity
Pyridoxine toxicity; NT-3 5-20 mg/kg/day, s.c., during chronic pyridoxine treatment
  behavioral and electrophysiological sequelae of pyridoxine toxicity (beam-walking, H waves): largely attenuated
Pyridoxine toxicity; NT-3 administration during chronic pyridoxine treatment
  degeneration of sensory fibers in the dorsal column of the spinal cord: prevented degeneration of sensory fibers in the dorsal column of the spinal cord
[2]; cisplatin
  cytoplasmic distribution of neurofilament protein in large sensory neurons and numbers of myelinated fibers in sural nerves: corrected
[2]
  H-reflex-related sensory nerve conduction velocity reduced by cisplatin: restored to normal levels

B1: Mab 2345: human IgG2 agonist anti-trkC monoclonal antibody; hybridoma ATCC PTA-2146; heavy chain SEQ ID NO: 47, light chain SEQ ID NO: 54 (antibody, listed as Homo sapiens, V domains shown)
VH: NQVQLQESGPGLVKPSQTLSLTCTVSGGSISSGGYYWSWIRQHPEKGLEWIGYIFYSGRTYYNPSLKSRVTISVDTSKNQFSLKLNSVTAADTAVYYCARERIAAAGADYYYNGLDVWGQGTTVTVSSC
VL: NEIVLTQSPGTLSLSPGERATLSCRASQSVSSNYLTWYQQKPGQAPRLLIYGASSRATGIPDRFSGSGSGTDFTLTISRLEPEDFAVYYCQQYGRSPPITFGQGTRLEIKRC
gD-trkC; [3]
  Kd, Immobilized IgG: NDB

B2: Mab 2349: human IgG4 agonist anti-trkC monoclonal antibody; hybridoma ATCC PTA-2153; heavy chain SEQ ID NO: 48, light chain SEQ ID NO: 55 (antibody, listed as Homo sapiens, V domains shown)
VH: NQVQLQESGPGLVKPSQTLSLTCTVSGGSISSGYYYWSWIRQHPGKGLEWIGYIYYSGSTYYNPSLKSRLTISVDTSKNQFSLKLSSVTAADTAVYYCARERIAAAGTDYYYNGLAVWGQGTTVTVSSC
VL: NGIVLTQSPGTLSLSPGERATFSCRASQSGSSTYLAWYQQKPGQAPRLLIYGASSRATGIPDRFSGSGSGTDFTLTISRLEPEDFAVYYCQQYGRSPPITFGQGTRLEIKRC
gD-trkC; [3]
  Kd, Immobilized IgG: NDB

B3: Mab 2250: murine IgG1 agonist anti-trkC monoclonal antibody; hybridoma ATCC PTA-2149; heavy chain SEQ ID NO: 42, light chain SEQ ID NO: 49 (antibody)
heavy: NQVQLQQSGAELMQPGASVKISCKSTGYTFSNFWIEWVKQRPGHGLEWIGEILPGSDNTNYNEKFKGKATFTADTSSNTAYMQLSSLTSEDSAVYYCARKNRNYYGNYVVWGQGTLVTVSAC
light: NDIVMTQSPASLAVSLGQRATISYRASKSVSTSGYSYMHWNQQKPGQPPRLLIYLVSNLESGVPARFSGSGSGTDFTLNIHPVEEEDAATYYCQHIRELTRSARGQSWKKRC
modifications: Murine
trkC N335A
  ratio of binding of mutant vs wildtype trkC (EC50 divided by EC50 of wildtype trkC): 0.5
trkC E287K
  ratio of binding of mutant vs wildtype trkC (EC50 divided by EC50 of wildtype trkC): 0.8
trkC H318A
  ratio of binding of mutant vs wildtype trkC (EC50 divided by EC50 of wildtype trkC): 1.0
trkC L284E
  ratio of binding of mutant vs wildtype trkC (EC50 divided by EC50 of wildtype trkC): 0.6
trkC L286H
  ratio of binding of mutant vs wildtype trkC (EC50 divided by EC50 of wildtype trkC): 0.4
gD-trkC; IgG's binding to immobilized gD-trkC (400-600 RU), read-out: Kd, Immobilized gD-trkC
  Kd: 8.7 nM
gD-trkC; Table 3, read-out: Affinity Kd
  Kd: 8.7 nM
gD-trkC; gD-trkC binding to immobilized IgG's (1000-3000 RU), read-out: Kd, Immobilized IgG
  Kd: 28 nM
Wildtype trkC
  ratio of binding of mutant vs wildtype trkC (EC50 divided by EC50 of wildtype trkC): 1.0
trkC R285A
  ratio of binding of mutant vs wildtype trkC (EC50 divided by EC50 of wildtype trkC): 2.6

B4: BDNF: brain-derived neurotrophic factor, a neurotrophin (protein, UniProt P23560 19-247, looked up)
Neurotrophic factor BDNF …: APMKEANIRGQGGLAYPGVRTHGTLESVNGPKAGSRGLTSLADTFEHVIEELLDEDQKVRPNEENNKDADLYTSRVMLSSQVPLEPPLLFLLEEYKNYLDAANMSMRVRRHSDPARRGELSVCDSISEWVTAADKKTAVDMSGGTVTVLEKVPVSKGQLKQYFYETKCNPMGYTKEGCRGIDKRHWNSQCRTTQSYVRALTMDSKKRIGWRFIRIDTSCVCTLTIKRGR
p75^NTR (LNGFR, p75)
  Kd: 2 nM
